# Reference: the Immune Epitope Database (IEDB)
# pIC50, pKd: −log10 of the molar value.
# Tests used:
# HLA-A*03:01 = experiment: IEDB peptide-MHC binding, purified MHC/competitive/radioactivity; ≥ and ≤ were set here for values at or beyond the usual limits of such assays
# HLA-A*30:01 [1] = experiment: as above; conditions: source organism: Mus musculus
# HLA-A*31:01 = experiment: as above
# HLA-A*33:01 [2] = experiment: as above
# HLA-A*66:01 [3] = experiment: as above
# HLA-A*68:01 = experiment: as above
# HLA-A*11:01 [4] = experiment: IEDB peptide-MHC binding, purified MHC/competitive/radioactivity; filed as Kd, often an IC50 or EC50 that approximates it; ≥ and ≤ were set here for values at or beyond the usual limits of such assays; conditions: source organism: Mus musculus
# HLA-A*11:01 [5] = experiment: IEDB peptide-MHC binding, purified MHC/competitive/radioactivity; ≥ and ≤ were set here for values at or beyond the usual limits of such assays
# HLA-A*30:01 [6] = experiment: IEDB peptide-MHC binding, purified MHC/competitive/radioactivity; filed as Kd, often an IC50 or EC50 that approximates it; ≥ and ≤ were set here for values at or beyond the usual limits of such assays; conditions: source organism: Homo sapiens
# HLA-A*66:01 [7] = experiment: as above; conditions: source organism: Mus musculus
# HLA-B*07:02 = experiment: IEDB peptide-MHC binding, purified MHC/competitive/radioactivity; ≥ and ≤ were set here for values at or beyond the usual limits of such assays
# HLA-B*42:01 = experiment: as above
# HLA-B*53:01 = experiment: as above
# HLA-A*33:01 [8] = experiment: IEDB peptide-MHC binding, purified MHC/competitive/radioactivity; filed as Kd, often an IC50 or EC50 that approximates it; ≥ and ≤ were set here for values at or beyond the usual limits of such assays; conditions: source organism: Homo sapiens
# HLA-B*35:03 = experiment: IEDB peptide-MHC binding, purified MHC/competitive/radioactivity; ≥ and ≤ were set here for values at or beyond the usual limits of such assays; conditions: source organism: Mus musculus
# HLA-B*35:01 = experiment: IEDB peptide-MHC binding, purified MHC/competitive/radioactivity; filed as Kd, often an IC50 or EC50 that approximates it; ≥ and ≤ were set here for values at or beyond the usual limits of such assays; conditions: source organism: Mus musculus
# HLA-B*51:01 = experiment: as above; conditions: source organism: Mus musculus
# HLA-B*54:01 = experiment: as above; conditions: source organism: Mus musculus
sequence,measurement,setting,value
LALEVARQKR,pIC50,HLA-A*03:01; source organism: Mus musculus,4.36
same,pIC50,HLA-A*30:01 [1],4.37
same,pIC50,HLA-A*31:01; source organism: Mus musculus,4.97
same,pIC50,HLA-A*33:01 [2]; source organism: Mus musculus,5.04
same,pIC50,HLA-A*66:01 [3]; source organism: Mus musculus,4.89
same,pIC50,HLA-A*68:01; source organism: Mus musculus,4.90
same,pKd,HLA-A*11:01 [4],≤ 4.30
LALEGSLQKR,pIC50,HLA-A*03:01; source organism: Homo sapiens,4.76
same,pIC50,HLA-A*11:01 [5]; source organism: Homo sapiens,4.46
same,pIC50,HLA-A*31:01; source organism: Homo sapiens,4.42
same,pIC50,HLA-A*33:01 [2]; source organism: Homo sapiens,5.49
same,pIC50,HLA-A*66:01 [3]; source organism: Homo sapiens,6.29
same,pIC50,HLA-A*68:01; source organism: Homo sapiens,7.18
same,pKd,HLA-A*30:01 [6],≤ 4.30
TLALEVARQK,pIC50,HLA-A*03:01; source organism: Mus musculus,6.22
same,pIC50,HLA-A*11:01 [5]; source organism: Mus musculus,5.48
same,pIC50,HLA-A*30:01 [1],4.63
same,pIC50,HLA-A*31:01; source organism: Mus musculus,4.89
same,pIC50,HLA-A*33:01 [2]; source organism: Mus musculus,4.59
same,pIC50,HLA-A*68:01; source organism: Mus musculus,4.87
same,pKd,HLA-A*66:01 [7],≤ 4.30
GPGAGSLQPLAL,pIC50,HLA-B*07:02; source organism: Homo sapiens,6.34
same,pIC50,HLA-B*42:01; source organism: Homo sapiens,5.22
same,pIC50,HLA-B*53:01; source organism: Homo sapiens,4.81
PLALEGSLQ,pIC50,HLA-A*03:01; source organism: Homo sapiens,4.68
same,pIC50,HLA-A*11:01 [5]; source organism: Homo sapiens,4.43
same,pIC50,HLA-A*31:01; source organism: Homo sapiens,4.40
same,pIC50,HLA-A*66:01 [3]; source organism: Homo sapiens,4.31
same,pIC50,HLA-A*68:01; source organism: Homo sapiens,4.38
same,pKd,HLA-A*30:01 [6],≤ 4.30
same,pKd,HLA-A*33:01 [8],≤ 4.30
SPGDLQTLAL,pIC50,HLA-B*07:02; source organism: Mus musculus,8.36
same,pIC50,HLA-B*35:03,4.79
same,pIC50,HLA-B*42:01; source organism: Mus musculus,7.46
same,pIC50,HLA-B*53:01; source organism: Mus musculus,4.96
same,pKd,HLA-B*35:01,≤ 4.30
same,pKd,HLA-B*51:01,≤ 4.30
same,pKd,HLA-B*54:01,≤ 4.30
AINSEMFLR,pIC50,HLA-A*03:01; source organism: Mus musculus,6.37
same,pIC50,HLA-A*11:01 [5]; source organism: Mus musculus,6.68
same,pIC50,HLA-A*30:01 [1],4.30
same,pIC50,HLA-A*31:01; source organism: Mus musculus,7.17
same,pIC50,HLA-A*33:01 [2]; source organism: Mus musculus,5.97
same,pIC50,HLA-A*66:01 [3]; source organism: Mus musculus,5.34
same,pIC50,HLA-A*68:01; source organism: Mus musculus,6.96
